Laboratory results published in the supplement of paper PMC10567573.

B1: LOXL2 (parent)
chain: HISSCKLGPQVSLDPMKNVTCENG

Variants of: B1
Assay: protein stability index of a GFP-peptide fusion (GPS, HEK-293T) (PSI 1-6); higher = more stable
Conditions: c terminus: a fixed tail appended
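Note: lentivirally expressed fusions sorted by FACS into six bins by GFP to DsRed ratio, PSI derived from sequencing read proportions per bin multiplied by bin number.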

| Variant | protein stability index |
| --- | --- |
| HISSCKLGPQVFLDPMKNVTCENG | 3.27 |
| HIRSCKLGPQVSLDPMKNVTCENG | 3.48 |
| HISSCKLGPQVSLDPMKNVTCHNG | 3.18 |
| HISSCCLGPQVSLDPMKNVTCENG | 3.73 |
| HISSCKLGPQVSLDPMKNVTQENG | 3.86 |
| HISSCKLGPQVSLDPMKNVTCECG | 4.01 |
| SISSCKLGPQVSLDPMKNVTCENG | 4.14 |
| HISSCKLGVQVSLDPMKNVTCENG | 3.23 |
| HISSCKLGPQPSLDPMKNVTCENG | 4.34 |
| HISSCKLGPQVSLDPMKNVTCCNG | 3.22 |
| HISICKLGPQVSLDPMKNVTCENG | 3.02 |
| HISSCKLGPQVSLDPMKGVTCENG | 3.81 |
| HISSCKLGPQVSLDPYKNVTCENG | 3.86 |
| HISSCKLGPQVSLDPPKNVTCENG | 4.16 |
| HISSCRLGPQVSLDPMKNVTCENG | 3.94 |
| HISSCILGPQVSLDPMKNVTCENG | 3.57 |
| HISSCKTGPQVSLDPMKNVTCENG | 4.54 |
| HISECKLGPQVSLDPMKNVTCENG | 4.37 |
| HISSCKLGEQVSLDPMKNVTCENG | 4.36 |
| HISSAKLGPQVSLDPMKNVTCENG | 4.39 |
| HISSCKLGPQVSLDPMKNGTCENG | 4.15 |
| HISSCKLGPQVSLDPMKNVTHENG | 4.03 |
| HISSCKLGPQVSLDPMKSVTCENG | 3.2 |
| HISSCKLKPQVSLDPMKNVTCENG | 3.61 |

| Variant | protein stability index |
| --- | --- |
| HISSCKLGPQVSLDSMKNVTCENG | 3.94 |
| HISSCKLGPQVSLDGMKNVTCENG | 3.93 |
| HISSCKLGPQVSLDPMMNVTCENG | 3.22 |
| HISSCKLGPQVSLDPMKNVTCQNG | 3.47 |
| HISSCKLGPQVSVDPMKNVTCENG | 4.06 |
| HISSCKLGIQVSLDPMKNVTCENG | 2.63 |
| HISSCKLGPQVSLDPQKNVTCENG | 4.43 |
| HISSQKLGPQVSLDPMKNVTCENG | 4.49 |
| HISSCKLGPQVSLDPMKNVTCENR | 3.58 |
| HIYSCKLGPQVSLDPMKNVTCENG | 2.62 |
| HISSCKLGPQVSLDPMKNVTCEAG | 3.53 |
| HISSCKLGPQVSLDPMKNVTCEND | 4.01 |
| HISSCKLGPGVSLDPMKNVTCENG | 4.53 |
| HIESCKLGPQVSLDPMKNVTCENG | 4.24 |
| HISSCKLGPQVSLDPMKNVTCENI | 3.39 |
| HISSCKLGPYVSLDPMKNVTCENG | 3.07 |
| HINSCKLGPQVSLDPMKNVTCENG | 4.24 |
| HISSCKLGPQVSLRPMKNVTCENG | 3.33 |
| HISSCKLGPQVSLDPMKNVMCENG | 3.64 |
| HISSCKLGPQVSLDVMKNVTCENG | 3.88 |
| HISSCKLGPQVSHDPMKNVTCENG | 4.34 |
| HISSCKLGPQVSLDPMKNVQCENG | 4.02 |
| HISSCKLGPQVSQDPMKNVTCENG | 4.28 |
| HISSCKLGPQVSLDPMKNITCENG | 3.59 |

| Variant | protein stability index |
| --- | --- |
| HISSCKLGPQVSLDPMKNVTCING | 2.92 |
| HISSCKLGPQVSLDPMKNVTCEDG | 4.38 |
| HISSCKLPPQVSLDPMKNVTCENG | 4.01 |
| HISSCKLGYQVSLDPMKNVTCENG | 2.83 |
| HISSCKPGPQVSLDPMKNVTCENG | 4.51 |
| HISSCKLGPQVSLDPMKNQTCENG | 4.08 |
| HISSCKLGPQGSLDPMKNVTCENG | 3.25 |
| HISSCKLGMQVSLDPMKNVTCENG | 2.69 |
| HISSCKKGPQVSLDPMKNVTCENG | 4.33 |
| HISSCYLGPQVSLDPMKNVTCENG | 3.44 |
| HISSCKLGPKVSLDPMKNVTCENG | 3.77 |
| HISSCKLGPQVSIDPMKNVTCENG | 4.1 |
| HISSCKIGPQVSLDPMKNVTCENG | 4.57 |
| HISSCKLGPQVSLAPMKNVTCENG | 3.51 |
| HISSCKLGPQVSLDPMKNVTCPNG | 3.47 |
| HISSCKLGPQVSLDPMKNFTCENG | 2.95 |
| HISSCKLGPQVSLFPMKNVTCENG | 2.46 |
| HISSCKLGPQVSLDPMKNVTKENG | 4.06 |
| KISSCKLGPQVSLDPMKNVTCENG | 4.22 |
| HISNCKLGPQVSLDPMKNVTCENG | 3.47 |
| HISSCKLGPQVSLDPMKNVTCEFG | 2.93 |
| HISSCKLGPLVSLDPMKNVTCENG | 3.32 |
| AISSCKLGPQVSLDPMKNVTCENG | 3.87 |
| HISSCKLGPQVSLDPMKNVTCEQG | 4.08 |

| Variant | protein stability index |
| --- | --- |
| HISSCKLGPCVSLDPMKNVTCENG | 3.19 |
| HISSCKLGPQVSLDPMKNVTCEVG | 3.53 |
| HISYCKLGPQVSLDPMKNVTCENG | 3.44 |
| HISSCKLGPQVSLDPMKNVTCENW | 2.93 |
| HISSCKLGPQVSLTPMKNVTCENG | 3.62 |
| HISSCKLGPQVSLDPMKNVTCANG | 3.51 |
| EISSCKLGPQVSLDPMKNVTCENG | 3.96 |
| HISSCKLGPQVSLDPMLNVTCENG | 3.77 |
| HISSCKLGPQVSLDPMKNRTCENG | 4.26 |
| HISGCKLGPQVSLDPMKNVTCENG | 3.79 |
| HCSSCKLGPQVSLDPMKNVTCENG | 3.44 |
| HISSCKLIPQVSLDPMKNVTCENG | 3.86 |
| HISSCKLGPQVSLDPMKNVTCENA | 3.65 |
| HISSCKLGPQVSLDPMKNVTCENC | 3.37 |
| HISSCKLWPQVSLDPMKNVTCENG | 1.87 |
| HISSCKLRPQVSLDPMKNVTCENG | 3.29 |
| HISSCKLGPRVSLDPMKNVTCENG | 3.85 |
| HISSCKLGNQVSLDPMKNVTCENG | 3.71 |
| HICSCKLGPQVSLDPMKNVTCENG | 2.78 |
| HISSCKLGPQVSLDPMKRVTCENG | 3.44 |
| HILSCKLGPQVSLDPMKNVTCENG | 3.19 |
| HISSCKLGPQVSLDPMKNVTCTNG | 3.23 |
